Reference: the nanobody polyreactivity screen of Harvey et al. (2022)

Assay: yeast display, Sf9 membrane polyspecificity reagent, FACS + sequencing; frameworks hold sequencing errors
Method in brief: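 After 36–48 hours of galactose induction, yeast (Saccharomyces cerevisiae BJ5465) displaying a synthetic nanobody library were stained at 4 °C for 1 hour with 10% biotinylated, detergent-solubilized Sf9 membrane reagent. Streptavidin microbeads enriched the stained cells before FACS sorting into low and high (top ~1%) gates on anti-HA and streptavidin fluorescence. Each clone's polyreactivity label reflects its gate of origin.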

Sequence	polyreactivity (PSR sort gate)
QVQLVESGGGLVQAGGSLRLSCAASGRTFYWYTMGWYRQAPGKERELVAAISTRGVRTYYADSVKGRFTISRDNAKNTVYLQMNSLKPEDTAVYYGNDEYNPPYYTSHDDSDYWGQGTHVTVSS	low polyreactivity
QVQLVESGGGLVQAGGSLRLSCAASGSTFRPNAMGWYRQAPGKERELVAAINRGGRTNYADSVKGRFTISRDNAKNTVYLQMISLKPEDTAVYYCAAYIAGRYGARGYDYWGQGTQVTVSS	high polyreactivity
QVQLVESGGGLVQAGGSLRLSCAASGRIFYYNAMGWYRQAPGKERELVAAIRSSGGTTYYADSVKGRFTISRDNAKNTVYLQMNSLKPEDTAVYYCNARYWVYYVYEYDSWGQGTQVTVSS	low polyreactivity
QVQLVESGGGLVQAGGSLRLSCAASGRIVGRYVMGWYRQARGKERELVAAITSGGSTYYADSVKGRFTISRDNAKNTVYLQMNSLKPEDTAVYYCAAKWRSPRYYLYGYWGQGTQVTVSS	high polyreactivity
QVQLVESGGGLVQAGGSLRISCAASGFTFPSNAMGWYRQAPGKERELVAAITGGGRTYYADSVKGRFTISRDNAKNTVFFQMNSLKPEDTAVYYCNRPTRVHLTHYDYCGQGTQVTVSS	high polyreactivity
QVQLVESEGGLVQAGGSLRLSCAASGRTYYAMGWYRQAPGKERELVAAISGTGASTYYADSVKGRFTISRDNAKNTVYLQMNSLKPEDTAVYYCAAEWFYYNTQQWFDYWGQGTQVPVSS	low polyreactivity
QVQLVESGGGLVQAGGSLRLSCAASGRVFTPYAMGWYRQAPGKERELVAVIRDGSTYYADSVKGRFTISRDNAKNTVYLQMNSLKPEDTAVYYCRYDIWVWWSGAYDYWGQVTQVTVSS	low polyreactivity
QVQLVESGAGLVQAGGSLRLSCAASGSIFYVYAMGWYRQAPGKERELVAAISSSAGSTYYADSVKGRFTISRDNAKNTVYLQMNSLKPEDTAVYYCAAKVRYSLRKYYYWGQGTQVTVSS	high polyreactivity
QVQLVESGGGLVQAGGSLRLSCAASGSIVRYSVGWYRQAPGKERELVAAISIGGTTYYADSVKGRFTISRDNAKNTVYLPMNSLKPEDTAVYYCNVRRRTWHYITSMDYWGQGTQVNVSS	high polyreactivity
QVQLVESGGGLVQAGGSLRLSCAASGSTFLGYAMGWYRQAPGKERELVAAITYSAGSTYYADSVKGRFTISRDNAKNTVYLQMNSLKPEDTAVYYSAKRYSGYDHWGQGTQVTVSS	low polyreactivity
QVQLVESGGGLVQAGGSLRLSCAASGFNFRRNAMGWYRQAPGKERELVAVITSSARTNYADSVKGRFTISRDNAKNTVYLQMNSLNPEDTAVYSCNAYRYRQSSSDKYGYWGQGTQVTVSS	high polyreactivity
QVQLVESGGGLVQAGGSLRLSCASSGFIFFYYTKGWYRQAPGKERELVAAISTGGSTYYADSVKGRFTISRDNAKNTVYLQMNSLKPEDTAVYYCAALYWYEYTYLEYDYWGQGTQVTVSS	high polyreactivity
QVQLVESCGGLVQAGGSLRLSCAASGITFYGYAMGWYIQAPGKERELVARITISGRTNYADYVKGRFTISRDNAKNTVYLQMNSLKPEDTAVYYCATLVHWSYPYYYWGQGTQVTVSS	high polyreactivity
QVQLVESGGGLVQAGGSHRLSCAATGFTFSYYSMGWYRQAPGKERELVAAITSSAGSTYYADTVKGRFTISRDNAKNTVYLQMNSLKPEDTAVYYCNAVYSKLNGGYDYWGQGTQVTVSS	low polyreactivity
QVQLVESGGGLVQAGGSHRLSCAASGITFAFNTMGWYRQAPGKERELVAAISYSGGRTYYADSVKGRFTISRDNAKNTVYLQMNSLKPEDTAVYYCNTRYRGSYDYWGQATQVTVSS	high polyreactivity
QVQLVESGGGLVQAGGSLRLSCAASGSTFAAYAMGWYRQAPGKERELVAAISGGRTYYADSVKGRFTISRDNAKNTVYLEMYSLKPEDTAVYYCAKRYFYYTAFNAYGYWGQGTQVTVSS	high polyreactivity
QVQLVESGGGLVQAGGSLRLSCAASGSILTVYAMGWYRQAPGKERELVARIRSGDRTYYADSVKGRFTISRDNAKNTVYLQMNSLKPEDTAVYYCAAGSQRRYYHTNWDSFNYWGQGSQVTVSS	low polyreactivity
QVQLVESGGGLVQAGGSLRLSCAASGSTFRQNAMGWYRQAPGKERELVAAISSIGDSTNYADSVKGRFTISRDNAKNTVYLQMNSLKPEDTAVYYCAARTVQQRRRLYYWGQGTQVTVSS	high polyreactivity
PVQLVESGGGLGQAGGSLRLSCAASGIIFNDYAMGWYRQAPGKERELVASIRSNTGSTNYADSVKGRFTISRDYAKNTVYLPMNSLKPEETAVSDCAADYLPDYGPRGGYWGQGTQVTVSS	low polyreactivity
QVQLVESGGGLVQAGGSLRVSCAASGSIFQANAMGGYRQAPGKERELVAASRWSGGSTNYPDSVKGRFSISRDNAKNTVYLPMNSLKPEDTAVYYCAAKRFSSPYWEYYWGQGTQVTVSS	high polyreactivity
QVQLVESGGGLVQAGGSLRLSCDDSGRIFGGYGMGWYTQAPGKEGELVAAISARGGSTYYADSVKGRFTISRDNAKNTVYLQMNSLKPEDTEFYYCAAVEASSRGYYDYDYWGQGTQVTVSS	low polyreactivity
QVQLEESGGGLVQAGGSLRLSCAASGRTSRVYAMGWYRQAPGKERELVAAITWRGGNTYYADSVKGRFTISRDNAKNTVYLQMNSLKPEDTAVYYCARDNGSPYHYYYWGQGTQVTVSS	high polyreactivity

Sequence	polyreactivity (PSR sort gate)
QVQLVESGGGLVQAGGSLRLSCAASGRIFADYAMGWYRQAPGKEREMVADIRQSGGRTYYADSVKGRFTISRDNAKNTVYLQMNSLKPEDTAVYYCATEYGSLGDYSGKYDYWGQGTQVTVSS	low polyreactivity
QVQLVESGGGLVQAGGSLRLSCASSGRTFFKNALGWYRQSPGKERELVARISWNGGDSTYYADSVKGRFTISRDNAKITVFFQMISLKPEDTAVYYCAADTSYRQGGSRHGYVYWGQGTQVTVSS	low polyreactivity
QVQLVESGGGLVQAGGSLRLSCAASGITLVRYAMGWYRQAPGKERELVASIRGTGGSTYYADSVKGRFTISRDNAKNTVYLQMNSLKPEDTAVYYCAAGRYDYWGQGTQVTVSS	high polyreactivity
QVQLVESGGGLVQAGGSLRLSCAASGSIFSSYALGWYRQAPGKERELVAAISQSGGDTYYADSVKGRFTISRDNAKNTVYLQMNSLKPEDTAVYYCAADWAYYVASYLYYTFDYWGQGTQVTVSS	low polyreactivity
QVQLVESGGGLVQAGGSLRLSCAASGRTFRGYAMGWYRQAPGKERELVAAISVTGSSTNYADSVKGRFTISRDNAKNTVYLQMNSLKPEDTAVYYCAASYRLYKYDYWGQGTQVTVSS	high polyreactivity
QVQLVESGGGLVQAGGSLRLSCAASGRISWGYAMGWYRQAPGKERELVAVINFNGGRTYYADSVKGRFTISRDNAKNTVYLQMNSLKAEDTAVYYCAADSGYEYDYWGQGTQVTVSS	low polyreactivity
QVQLVESWGGLVQAGGSLRLSCAASGITFTVYAMGWYRQAPGKEREFVAAISSSGSTTYAVSVKGRLTFSRDNAKNTVYLQMNSLKPEDTAVYYCAAEGYYRFSTAYFRRKYEYCGQGTQVTVSS	low polyreactivity
QVQLEESGGGLVQAGGSLRLSCAASGFICKRYARGWYRQAPGKERELVAAITTSGGRTYYADSVKGRFTISRDNAKNTVYLQMNSLIPEDTAVYYCAAAQPGTNAYRVGSWGQGTQVTVSS	high polyreactivity
QVQLVESGGGLVQAGGSLRLSCAASASTFILSAMGWYRQAPGNERELVAAISSDGSTYYADSVKGRFTISRDNAKNTVYLQMNSLKPEDTAVYYCAAYGYDADTGYDYWGQGTQVTVSS	low polyreactivity
QVQLVESGGGLVQAGGSLRLSCAASGRIFSYYAMGWYRQAPGKERELVAAITRRDGRTYYADSVKGRFTISRDNAKNTVYLQMNSLKPEDTAVYYCAAYLAASYDWGQGTQVTVSS	low polyreactivity
QVQLVESGGGLVQEGGSLRLSCAASGSTFVHYDMGWYRQAPGKERELVAGITDTDNHELRRLCEGRFTISRDKAKNTVYLQMNSLKPEDTAVYYCNADDTYYPLGGITGYDYWGQGTQVTVSS	low polyreactivity
QVQLVESGGGLVQAGGSLLLSSAASGIIFNQYAMGWYRQAPGKERELVATISSGGARTYYADSVKWRFTISRDNAKNTVYLQMNSRKPEDTAVYFCNRRVPYSFYSRGYYYWGQGTQVTVSS	high polyreactivity
QVQLVESGGGLVQAGGSLRLSCAASGGTFGKNAMGWYRQAPGKERELVAAITWSGARTFYADSVKGRFTISRDNAKNTVYLQMNSLKPEDTAVYYCAKGGTRFTRYEYWGQGTQVTVSS	high polyreactivity
QVQLVESGGGLVQAGGSLRLSCAASGNTFNPNAMGWYRQAPGKERELVAVIRFRGGSTYYADSVKGRFTISRDNAKNTVYLQMNSLKPEDTAVYYCAADFLYYYLRYYYWGQGTQVTVSS	high polyreactivity
QVQLVESGGGLVQAGGSLRLSCAASGINLAGYVMGGYRQAPGKERDLVADISSSGDSTYYADSVKGRFTISRDNAKNTVYLQMNSLLPEDTAVYYCAAEEIIPLIYKGYPFDYWGQGSQVTVSS	low polyreactivity
QVQLVESGGGLVQAGGSLRLSCAASGSISFSNAMGWYRQAPGKERELVASITSGGSTKYADSVKGRFTISRDNAKNTVYLQMNSLKPEDTAVYYCAADGYDYWGQGTQVTVSS	low polyreactivity
QVHLVESGGGLVQAGGSLRLSCAASGRIFYYNAMGWYRQAPGKERELVAAISSAGSTYYADSVKGRFTLSRDNAKNTVYLQMNSLKPEDTAVYYCNAGKHERMDWGQGTQVTVSS	high polyreactivity
QVQLVESGGGLVQAGGSLRLSCAASGRTFGHYAMGWYRQAPGKERELVAAITYSGGSTYADSVKGRFTISRDNAKNTVYLQMNSLKPEDTAVYYCNKRQKGYTRSYRYIVWYDYWGQGTQVTVSS	high polyreactivity
QVQLVESGGGLVQAGGSLRLSCAASGRTFEVYAMGRYRQPPGKERELVATITYSGGITYYADSVKGRFTISRDNAKNTVYLQMNSLKPEYTAVYYPICVGGDYDYWGQGTQVTVSS	low polyreactivity
QVQLVESGGGLVHAGGILRLSCAASGRTFRYYTMGWYRQEPGKERELVAAISSGGGNTYYADSVKGRFTISRDNAKNTVYLQMNSLKPEDTAVYYCAVPWYTRESGAYDYWGQGSQVTVSS	high polyreactivity
QVQLVESGGGLVQAGGSLRLSCAASGFIFRRNVMGWYRQAPGKERELVAAISRSGASTYYADSVKGRFTISRDNAKNTVYLQMNSLKPEDTAVYYCNKRDKVTYSYDYWGQGTQVTVSS	high polyreactivity
